As usually defined, the Kd is the concentration at which binding is half-saturated. Read a low Kd as higher affinity.

For the test, the target named is T1, RVFV glycoprotein Gn head domain (154–469 aa) (Rift Valley fever virus, UniProt P21401 154-469).
T1 chain: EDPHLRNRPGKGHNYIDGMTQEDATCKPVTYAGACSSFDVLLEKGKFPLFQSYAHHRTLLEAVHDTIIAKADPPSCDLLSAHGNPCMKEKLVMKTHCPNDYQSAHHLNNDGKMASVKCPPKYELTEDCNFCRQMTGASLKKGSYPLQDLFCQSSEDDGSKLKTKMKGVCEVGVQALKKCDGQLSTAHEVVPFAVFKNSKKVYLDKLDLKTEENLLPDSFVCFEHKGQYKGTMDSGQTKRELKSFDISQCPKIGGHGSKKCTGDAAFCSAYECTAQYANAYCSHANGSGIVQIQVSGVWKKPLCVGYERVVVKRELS
In words: BLI. In general terms: BLI is a label-free optical method that tracks binding on a fibre tip over time.

B1: LRP1 single complement-type repeat CR25 fused to human Fc (Fc fusion)
chain: not shown
On to B1, for which the Kd was determined as 67 nM.

For the origin of these results see PMC12839305 (2025).
